This note sets out measurements from patent US20070110818A1, “Milk fractions and milk preparations for treating and/or preventing cox-2 mediated diseases” (priority 2003, published 2007).

The target in this assay is T1, COX-2 (Homo sapiens, UniProt P35354).
T1 construct: treated with 100 nM (nmol/l) phorbol 12-myristate 13-acetate for 6 h at 37° C. to induce COX-2 isoenzyme; endogenous in cells; host or cells: HUV-EC-C (ATCC CRL1730), PMA-induced
T1 sequence (P35354 18-604): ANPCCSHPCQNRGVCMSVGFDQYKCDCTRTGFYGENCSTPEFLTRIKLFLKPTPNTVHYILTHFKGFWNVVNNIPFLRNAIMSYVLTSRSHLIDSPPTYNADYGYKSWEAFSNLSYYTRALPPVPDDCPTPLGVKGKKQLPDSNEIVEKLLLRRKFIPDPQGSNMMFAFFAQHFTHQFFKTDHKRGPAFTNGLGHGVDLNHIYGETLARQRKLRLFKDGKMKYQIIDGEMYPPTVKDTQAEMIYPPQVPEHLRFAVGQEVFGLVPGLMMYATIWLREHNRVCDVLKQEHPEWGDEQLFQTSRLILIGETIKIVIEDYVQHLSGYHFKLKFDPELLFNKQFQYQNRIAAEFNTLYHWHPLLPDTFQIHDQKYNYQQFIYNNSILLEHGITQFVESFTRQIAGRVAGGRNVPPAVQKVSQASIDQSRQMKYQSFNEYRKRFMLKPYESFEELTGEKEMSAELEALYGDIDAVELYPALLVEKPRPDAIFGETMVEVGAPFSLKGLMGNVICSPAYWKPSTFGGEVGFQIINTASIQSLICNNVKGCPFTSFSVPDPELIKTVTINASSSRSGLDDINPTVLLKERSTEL
Briefly: COX-2 screening in PMA-induced HUV-EC-C cells (Prostaglandine-E2 production by RIA). It is filed as cell-based. The method, then: HUV-EC-C cells (a permanent endothelial cell line derived from the vein of a normal human umbilical cord; ATCC CRL1730; M. Miralpeix, M. Camacho et al., Brit. J. Pharmacol. 121 (1997), 171-180), were seeded onto 96-well plates (RPMI 1640+10% FCS) and treated with 100 nM (nmol/l) phorbol 12-myristate 13-acetate for 6 h at 37° C. to induce COX-2 isoenzyme. 50 μM (μmol/l) arachidonic acid were then added and the cells were incubated in the presence of test compounds or mixtures for 30 min at 37° C. Prostaglandine-E2 production was measured by radioimmuno assay (RIA) and the radioactivity determined with a scintillation counter (Topcount, Packard) using a liquid scintillation cocktail (Packard).
The results obtained are expressed as a percent of control values and as a percent inhibition of control values obtained in the presence of the test compounds. The control values correspond to the COX-2 activity of HUV-EC-C cells after stimulation with Phorbol Myristate Acetate (PMA) during 6 hours at 37° C. (can be done also with Tumor Necrosis Factor type alpha: TNFα) in absence of test compound.
The concentration causing a half-maximal inhibition of control values (IC50 value) and Hill coefficients (nH) were determined for the reference compounds (cycloheximide) by nonlinear regression analysis of their inhibition curves. These parameters were obtained by Hill equation curve fitting. […]

B1: Lactoferrin (protein, UniProt P02788 20-710, looked up)
Lactotransferrin: GRRRSVQWCAVSQPEATKCFQWQRNMRKVRGPPVSCIKRDSPIQCIQAIAENRADAVTLDGGFIYEAGLAPYKLRPVAAEVYGTERQPRTHYYAVAVVKKGGSFQLNELQGLKSCHTGLRRTAGWNVPIGTLRPFLNWTGPPEPIEAAVARFFSASCVPGADKGQFPNLCRLCAGTGENKCAFSSQEPYFSYSGAFKCLRDGAGDVAFIRESTVFEDLSDEAERDEYELLCPDNTRKPVDKFKDCHLARVPSHAVVARSVNGKEDAIWNLLRQAQEKFGKDKSPKFQLFGSPSGQKDLLFKDSAIGFSRVPPRIDSGLYLGSGYFTAIQNLRKSEEEVAARRARVVWCAVGEQELRKCNQWSGLSEGSVTCSSASTTEDCIALVLKGEADAMSLDGGYVYTAGKCGLVPVLAENYKSQQSSDPDPNCVDRPVEGYLAVAVVRRSDTSLTWNSVKGKKSCHTAVDRTAGWNIPMGLLFNQTGSCKFDEYFSQSCAPGSDPRSNLCALCIGDEQGENKCVPNSNERYYGYTGAFRCLAENAGDVAFVKDVTVLQNTDGNNNEAWAKDLKLADFALLCLDGKRKPVTEARSCHLAMAPNHAVVSRMDKVERLKQVLLHQQAKFGRNGSDCPDKFCLFQSETKNLLFNDNTECLARLHGKTTYEKYLGPQYVAGITNLKKCSTSPLLEACEFLRK
Turning to B1, the “cyclooxygenase-2 inhibiting activity (in words)” value was “not to have any cyclooxygense-2 inhibiting activity”.
